# Test results taken from the Human Domainome abundance scans (Beltran et al. 2025).
# ± gives the uncertainty stated by the source.
# B1: Nucleolar transcription factor 1, residues 408 to 469; numbered along this chain, P17480 (parent)
# chain: KRPVSAMFIFSEEKRRQLQEERPELSESELTRLLARMWNDLSEKKKAKYKAREAALKAQSER
# Variants of: B1
# Test: abundance fitness (aPCA) (normalised: wild type 0, dead -1); higher = more abundant; growth selection in yeast, the domain comes from the species named
# Conditions: Homo sapiens
row,Variant,abundance fitness
1,KRPVSAMFIFSEEKRRQLQEEIPELSESELTRLLARMWNDLSEKKKAKYKAREAALKAQSER,-0.286 ± 0.083
2,KRPVSAMFIFSEEKRRQLQEECPELSESELTRLLARMWNDLSEKKKAKYKAREAALKAQSER,-0.081 ± 0.063
3,KRPVSAMFIFSEEKRRQLQEERPELSESELTRLLARMWNDLNEKKKAKYKAREAALKAQSER,-0.147 ± 0.13
4,KRPVSAMFIFSEEKRRQLQEERPELSESELTRLLARMWNDLSEKKKAKSKAREAALKAQSER,-0.718 ± 0.058
5,KRPVSAMFIFSEEKRRQLQEERPELSESELTRLLARMWNDLSEKKKAKGKAREAALKAQSER,-0.761 ± 0.038
6,KRPVSAMFIFSEEKRRQLQEERPELSESELTWLLARMWNDLSEKKKAKYKAREAALKAQSER,-0.136 ± 0.054
7,KRPVSAMFIFSEEKRRILQEERPELSESELTRLLARMWNDLSEKKKAKYKAREAALKAQSER,-0.201 ± 0.14
8,KRPVSAMFIFSEEKRRCLQEERPELSESELTRLLARMWNDLSEKKKAKYKAREAALKAQSER,-0.211 ± 0.078
9,KRPVSAMFIFSEEKRRQLQEERPELSESELTRLLARMWNDLSEKKKAKYKAREAALKHQSER,0.029 ± 0.098
10,KRPVSAMFIFSENKRRQLQEERPELSESELTRLLARMWNDLSEKKKAKYKAREAALKAQSER,-0.344 ± 0.14
11,KRPVSAMFIFSEEKRRQLQEERPELSESELTRLLARMWNDLSEKKKAKYKAREAALFAQSER,-0.058 ± 0.081
12,LRPVSAMFIFSEEKRRQLQEERPELSESELTRLLARMWNDLSEKKKAKYKAREAALKAQSER,-0.048 ± 0.16
13,GRPVSAMFIFSEEKRRQLQEERPELSESELTRLLARMWNDLSEKKKAKYKAREAALKAQSER,-0.08 ± 0.076
14,WRPVSAMFIFSEEKRRQLQEERPELSESELTRLLARMWNDLSEKKKAKYKAREAALKAQSER,-0.205 ± 0.072
15,QRPVSAMFIFSEEKRRQLQEERPELSESELTRLLARMWNDLSEKKKAKYKAREAALKAQSER,-0.196 ± 0.29
16,KRPVSAMFIFSEEKRRQLQEERPELSESELTRLLARMWNDLSEKKAAKYKAREAALKAQSER,-0.311 ± 0.045
17,KRPVEAMFIFSEEKRRQLQEERPELSESELTRLLARMWNDLSEKKKAKYKAREAALKAQSER,0.042 ± 0.094
18,KRPVIAMFIFSEEKRRQLQEERPELSESELTRLLARMWNDLSEKKKAKYKAREAALKAQSER,-0.178 ± 0.096
19,KRPVSAMFIFSEEKRRQLQEERPELSESELTRLLARIWNDLSEKKKAKYKAREAALKAQSER,-0.235 ± 0.14
20,KRPVSAMFIFSEEKRRQLQEERPELSESELTRLLARMWNDLSEKKKAKYKARIAALKAQSER,-0.356 ± 0.15
21,KRPVSAMFIFSEEKRRQLQEERPELSESELTRLLARMWNDLSEKKKAKYKARRAALKAQSER,-0.389 ± 0.051
22,KRPVSAMFIFSEEKRRQLQEERPELSESELTRLLARMWNDLSEKKKAKYKARHAALKAQSER,-0.152 ± 0.091

row,Variant,abundance fitness
1,KRPVSAMFTFSEEKRRQLQEERPELSESELTRLLARMWNDLSEKKKAKYKAREAALKAQSER,-0.217 ± 0.074
2,KRPVSAMFIFSEEKRSQLQEERPELSESELTRLLARMWNDLSEKKKAKYKAREAALKAQSER,-0.001 ± 0.048
3,KRPVSAMFIFSEEKRYQLQEERPELSESELTRLLARMWNDLSEKKKAKYKAREAALKAQSER,-0.072 ± 0.099
4,KRPVSAMPIFSEEKRRQLQEERPELSESELTRLLARMWNDLSEKKKAKYKAREAALKAQSER,-0.235 ± 0.061
5,KRPVSAMTIFSEEKRRQLQEERPELSESELTRLLARMWNDLSEKKKAKYKAREAALKAQSER,-0.066 ± 0.093
6,KRPVSAMEIFSEEKRRQLQEERPELSESELTRLLARMWNDLSEKKKAKYKAREAALKAQSER,0.02 ± 0.07
7,KRPVSAMGIFSEEKRRQLQEERPELSESELTRLLARMWNDLSEKKKAKYKAREAALKAQSER,0.029 ± 0.045
8,KRPVSAMVIFSEEKRRQLQEERPELSESELTRLLARMWNDLSEKKKAKYKAREAALKAQSER,-0.027 ± 0.055
9,KRPVSAMFIFSEEKRRQLQEERPELNESELTRLLARMWNDLSEKKKAKYKAREAALKAQSER,-0.1 ± 0.1
10,KRPVSAMFIFSEEYRRQLQEERPELSESELTRLLARMWNDLSEKKKAKYKAREAALKAQSER,-0.038 ± 0.064
11,KRPVSAMFIFSEENRRQLQEERPELSESELTRLLARMWNDLSEKKKAKYKAREAALKAQSER,-0.086 ± 0.075
12,KRPVSAMFIFSEEARRQLQEERPELSESELTRLLARMWNDLSEKKKAKYKAREAALKAQSER,-0.057 ± 0.061
13,KRPVSAMFIFWEEKRRQLQEERPELSESELTRLLARMWNDLSEKKKAKYKAREAALKAQSER,-0.08 ± 0.056
14,KRPVSAMFIFLEEKRRQLQEERPELSESELTRLLARMWNDLSEKKKAKYKAREAALKAQSER,-0.049 ± 0.049
15,KRPVSAMFIFSEEKCRQLQEERPELSESELTRLLARMWNDLSEKKKAKYKAREAALKAQSER,-0.218 ± 0.071
16,KRPVSAMFIFSEEKRRQLQEERPELSESELKRLLARMWNDLSEKKKAKYKAREAALKAQSER,-0.086 ± 0.086
17,KRPVSAMFIFSEEKRRQLQEERPELSESELGRLLARMWNDLSEKKKAKYKAREAALKAQSER,-0.116 ± 0.047
18,KRPVSAMFIFSEEKRRQLQEERPELSESELWRLLARMWNDLSEKKKAKYKAREAALKAQSER,-0.221 ± 0.056
19,KRPVSAMFIFSEEKRRQLQEERPELSESELDRLLARMWNDLSEKKKAKYKAREAALKAQSER,0.005 ± 0.092
20,KRPVSAMFIFSEEKRRQLQEERPELSESELTRLLARMWNDLSEKKKAKYKAREAMLKAQSER,-0.047 ± 0.091
21,KRPVSAMFIFSEEKRRQLQEERPELSESELTRLLARMWNDSSEKKKAKYKAREAALKAQSER,-0.228 ± 0.061
22,KRPVSAMFIFSEEKRRQLQEERPFLSESELTRLLARMWNDLSEKKKAKYKAREAALKAQSER,-0.144 ± 0.085

row,Variant,abundance fitness
1,KRPVSAMFIFSEEKRRQLQEEREELSESELTRLLARMWNDLSEKKKAKYKAREAALKAQSER,-0.357 ± 0.068
2,KRPVSAMFIFSEEKRRQLQEERPELSESELTRLLARMWWDLSEKKKAKYKAREAALKAQSER,-0.203 ± 0.046
3,KRPVSAMFIFSEEKRRQLQEERPELSESELTRLLARMWHDLSEKKKAKYKAREAALKAQSER,-0.106 ± 0.11
4,KRPVSAMFIFSEEKRRQLQEERPELSESELTRLLARMWNDLSEKKKAKYKAREIALKAQSER,-0.142 ± 0.084
5,KRPVSAMFIFSEEKRRQLQEERPELSESELTRLLARMWNDLSEKKKAKYKARELALKAQSER,-0.056 ± 0.047
6,KRPVSAMFIFSEEKRRQLQEERPELSESELTRLLARMWNDLSEKKKAKYKAREPALKAQSER,-0.267 ± 0.075
7,KRPVSAMFIFSEEKRRQLQEERPELSESILTRLLARMWNDLSEKKKAKYKAREAALKAQSER,-0.327 ± 0.14
8,KRPVSAMFIFSEEKRRQLFEERPELSESELTRLLARMWNDLSEKKKAKYKAREAALKAQSER,-0.26 ± 0.11
9,KRPVSAMFIFSEEKRRQLQEERPELSESELTRLLARMWNDLSEKKKAKYKAFEAALKAQSER,-0.209 ± 0.1
10,KRPVSAMFIFSEEKRRQLQEERPELSESELTRLLARMWNDLSEKKKAKYKANEAALKAQSER,-0.277 ± 0.11
11,KRPVSAMFIFSEEKRRQLQEERPELSESELTRLLARMWNDLSEKKKAKYKYREAALKAQSER,-0.097 ± 0.18
12,KRPVSAMFIFSEEKRRQLQEERPELSESELTRLLARMWNDLSEKKKAKYKFREAALKAQSER,-0.079 ± 0.07
13,KRPVSADFIFSEEKRRQLQEERPELSESELTRLLARMWNDLSEKKKAKYKAREAALKAQSER,-0.144 ± 0.11
14,KRPVSANFIFSEEKRRQLQEERPELSESELTRLLARMWNDLSEKKKAKYKAREAALKAQSER,-0.086 ± 0.16
15,KRPVSAMFIFSEEKRRQGQEERPELSESELTRLLARMWNDLSEKKKAKYKAREAALKAQSER,-1 ± 0.055
16,KRPVSAMFIFSEEKRRQHQEERPELSESELTRLLARMWNDLSEKKKAKYKAREAALKAQSER,-0.639 ± 0.12
17,KRPVSAMFIFSEEKRRQVQEERPELSESELTRLLARMWNDLSEKKKAKYKAREAALKAQSER,-0.021 ± 0.041
18,KRPVSAMFIFSEEKRRQTQEERPELSESELTRLLARMWNDLSEKKKAKYKAREAALKAQSER,-0.092 ± 0.074
19,KRPVSAMFIFSEEKRRQLQEERPELSESELTRALARMWNDLSEKKKAKYKAREAALKAQSER,-0.118 ± 0.052
20,KRPVSAMFIFSEEKRRQLQEERPELSESELTRDLARMWNDLSEKKKAKYKAREAALKAQSER,-0.149 ± 0.069
21,KRLVSAMFIFSEEKRRQLQEERPELSESELTRLLARMWNDLSEKKKAKYKAREAALKAQSER,-0.068 ± 0.068
22,KRPVSAMFIFSEEKRRQLQERRPELSESELTRLLARMWNDLSEKKKAKYKAREAALKAQSER,-0.086 ± 0.044

row,Variant,abundance fitness
1,KRPVSAMFIFSEEKRRQLQEHRPELSESELTRLLARMWNDLSEKKKAKYKAREAALKAQSER,-0.163 ± 0.12
2,KRPVSAMFIFSEEKRRQLQEERPELSESELTRLLDRMWNDLSEKKKAKYKAREAALKAQSER,-0.035 ± 0.097
3,KRPVSAMFIFSEEKRRQLQEERPELSESELTRLLIRMWNDLSEKKKAKYKAREAALKAQSER,-0.015 ± 0.11
4,KRPVSAMFIFSEEKRRQLQEERPELSESELTRLLYRMWNDLSEKKKAKYKAREAALKAQSER,-0.387 ± 0.1
5,KRPVSAMFIFSEEKRRQLQEERPELSESELTRLLARMWNDLSEKKKAKYKAREAALKAGSER,-0.063 ± 0.054
6,KRPVSAMFIFSEEKRRQLQEERPELSESELTRLLARMWNDLSEKKKAKYKAREAALKALSER,-0.054 ± 0.038
7,KRPVSAMFIFSEEKRRQLQEERPELSESELTRLLARMWNDLSEKKKAKYKAREAALKAISER,-0.008 ± 0.065
8,KRPVSAMFIFSEEKRRQLQEERPELSESELTRLLARMWNDLSEKYKAKYKAREAALKAQSER,-0.181 ± 0.094
9,KRPVSAMFIFSEEKRRQLQEERPELSESELTRLLARMWNDLSEKKKAWYKAREAALKAQSER,-0.094 ± 0.061
10,KRPVSAMFIFSEEKRRQLQEERPELSESELTRLLARMWNDLSEKKKAKYKAREAALKAQSED,0.073 ± 0.15
11,KRPVSAMFIFSEEKRRQLQEERPELSESELTRLLARMWNDLSEKKKAKYKAREAALKAQSES,-0.019 ± 0.066
12,KRPVSAMFIFSEEKRRQLQEERPELSESELTRLLARMWNTLSEKKKAKYKAREAALKAQSER,-0.202 ± 0.078
13,KRPVSAMFIFSEEKRRQLQEERPELSEGELTRLLARMWNDLSEKKKAKYKAREAALKAQSER,-0.047 ± 0.06
14,KRPVSAMFIFSEEKRRQLQEERPELSEPELTRLLARMWNDLSEKKKAKYKAREAALKAQSER,-0.047 ± 0.047
15,KRPVSAMFIFSEEKRRQLQEERPELSENELTRLLARMWNDLSEKKKAKYKAREAALKAQSER,-0.053 ± 0.05
16,KRPVSLMFIFSEEKRRQLQEERPELSESELTRLLARMWNDLSEKKKAKYKAREAALKAQSER,-0.661 ± 0.06
17,KRPVSGMFIFSEEKRRQLQEERPELSESELTRLLARMWNDLSEKKKAKYKAREAALKAQSER,-0.045 ± 0.059
18,KRPVSAMFIFSEEKRRQLQEERPELSESELTRLLACMWNDLSEKKKAKYKAREAALKAQSER,-0.051 ± 0.078
19,KRPVSAMFIFSEEKRRQLQEERPELSESELTRLLAFMWNDLSEKKKAKYKAREAALKAQSER,-0.097 ± 0.11
20,KRPVSAMFIFSEEKRRQLQEERPELSESELTRLLADMWNDLSEKKKAKYKAREAALKAQSER,0.028 ± 0.095
